From publication PMC6494814, “Kremen1-induced cell death is regulated by homo- and heterodimerization” (Cell Death Discovery, 2019)

B1: Kremen1 (Krm1), full length, Flag-tagged or HA-tagged (receptor, UniProt Q99N43 20-473, looked up)
chain: ARPAPGPRSGPECFTANGADYRGTQSWTALQGGKPCLFWNETFQHPYNTLKYPNGEGGLGEHNYCRNPDGDVSPWCYVAEHEDGVYWKYCEIPACQMPGNLGCYKDHGNPPPLTGTSKTSNKLTIQTCISFCRSQRFKFAGMESGYACFCGNNPDYWKHGEAASTECNSVCFGDHTQPCGGDGRIILFDTLVGACGGNYSAMAAVVYSPDFPDTYATGRVCYWTIRVPGASRIHFNFTLFDIRDSADMVELLDGYTHRVLVRLSGRSRPPLSFNVSLDFVILYFFSDRINQAQGFAVLYQATKEEPPQERPAVNQTLAEVITEQANLSVSAAHSSKVLYVITPSPSHPPQTAPGSHSWAPSVGANSHRVEGWTVYGLATLLILTVTAVVAKILLHVTFKSHRVPASGDLRDCRQPGASGDIWTIFYEPSTTISIFKKKLKGQSQQDDRNPLVSD
notes: Kremen1 (Krm1), transmembrane receptor, full length; Two differently tagged copies of the same full-length protein (Flag-Krm1, HA-Krm1), each with ONE tag, written as one molecule for the self-association; In rows with truncated Krm1 or with Krm2 the Flag-tagged copy is the bait; Vector pCAG-IRES-EGFP or pCS2; also called Flag-Krm1; HA-Krm1; source: HEK293T, transfected, in lysate; not shown: …

Columns and labels:
[1] = target: B1; assay: cell-based or functional assay
[2] = target: the molecule itself; assay: cross-linking; HEK293T cells transfected with HA-Krm1 and Flag-Krm1, 0.2 mM BS3 (non cell-permeant) on ice for 30 min prior to lysis; straight western blots and anti-Flag immunoprecipitation with anti-HA blot

proportion of cleaved Caspase-3+ cells among HA+ HEK293T cells transfected with HA-Krm1 and either GFP or Krm1secECD; the pair interfered with is Krm1 with Krm1 (dimerization) [1] [fold decrease] | Binder | stoichiometry N [2]
2 | HA-Krm1secECD, secreted ectodomain of Krm1 (lacks the transmembrane and intracellular domains) (domain or fragment, UniProt Q99N43 21-392, looked up) RPAPGPRSGPECFTANGADYRGTQSWTALQGGKPCLFWNETFQHPYNTLKYPNGEGGLGEHNYCRNPDGDVSPWCYVAEHEDGVYWKYCEIPACQMPGNLGCYKDHGNPPPLTGTSKTSNKLTIQTCISFCRSQRFKFAGMESGYACFCGNNPDYWKHGEAASTECNSVCFGDHTQPCGGDGRIILFDTLVGACGGNYSAMAAVVYSPDFPDTYATGRVCYWTIRVPGASRIHFNFTLFDIRDSADMVELLDGYTHRVLVRLSGRSRPPLSFNVSLDFVILYFFSDRINQAQGFAVLYQATKEEPPQERPAVNQTLAEVITEQANLSVSAAHSSKVLYVITPSPSHPPQTAPGSHSWAPSVGANSHRVEGWT | 
 | B1 | 2
